Measurements taken from paper PMC11125772, “A Self-Assembling Pfs230D1-Ferritin Nanoparticle Vaccine Has Potent and Durable Malaria Transmission-Reducing Activity” (Vaccines, 2024).

Biological target: the molecule itself
Experiment: SEC-SAXS; SIBYLS beamline 12.3.1; Shodex KW-804 column for Pfs230D1-ferritin, Shodex KW-802.5 column for Pfs230D1; molecular weight from SAXS (ATSAS)

B1: ferritin (H. pylori ferritin nanoparticle construct without Pfs230D1) (other)
chain: GGSGGSGGGGSGESQVRQQFSKDIEKLLNEQVNKEMQSSNLYMSMSSWCYTHSLDGAGLFLFDHAAEEYEHAKKLIIFLNENNVPVQLTSISAPEHKFEGLTQIFQKAYEHEQHISESINNIVDHAIKSKDHATFNFLQWYVAEQHEEEVLFKDILDKIELIGNENHGLYLADQYVKGIAKSRKS
notes: linker that contains residues from the N-terminal extension found in bullfrog lower subunit ferritin; Helicobacter pylori ferritin (WP_000949190.1), amino acids 3-167, with I7E and N19Q; Cloned in a modified pHLSec with a secretion signal ahead of the subunit; purified without a tag; Subunit theoretical molecular weight printed as 21.2 kDa; also called ferritin construct; Helicobacter pylori …
  stoichiometry N: 24

B2: Pfs230D1-ferritin (other)
chain: SVLQSGALPSVGVDELDKIDLSYETTESGDTAVSEDSYDKYASNNTNKEYVCDFTDQLKPTESGPKVKKCEVKVNEPLIKVKIICPLKGSVEKLYDNIEYVPKKSPYVVLTKEETKLKEKLLSKLIYGLLISPTVNEKENNFKEGVIEFTLPPVVHKATVFYFICDNSKTEDDNKKGNRGIVEVYVEPYGNKINGGGGGSGESQVRQQFSKDIEKLLNEQVNKEMQSSNLYMSMSSWCYTHSLDGAGLFLFDHAAEEYEHAKKLIIFLNENNVPVQLTSISAPEHKFEGLTQIFQKAYEHEQHISESINNIVDHAIKSKDHATFNFLQWYVAEQHEEEVLFKDILDKIELIGNENHGLYLADQYVKGIAKSRKS
notes: Pfs230 of Plasmodium falciparum 3D7 (XP_001349600.1): a portion of the N-terminal disordered region, amino acids 542-588, and domain 1 (D1), amino acids 589-736; linker that contains residues from the N-terminal extension found in bullfrog lower subunit ferritin; Helicobacter pylori ferritin (WP_000949190.1), amino acids 3-167, with I7E and N19Q; Cloned in a modified pHLSec with a secretion …
  stoichiometry N: 24
